Patent publication US20260125446A1 (Eli Lilly, published 2026)
Ends that are not written are not given here.

T1: human RXFP1 receptor (human, UniProt Q9HBX9 1-757)
T1 sequence: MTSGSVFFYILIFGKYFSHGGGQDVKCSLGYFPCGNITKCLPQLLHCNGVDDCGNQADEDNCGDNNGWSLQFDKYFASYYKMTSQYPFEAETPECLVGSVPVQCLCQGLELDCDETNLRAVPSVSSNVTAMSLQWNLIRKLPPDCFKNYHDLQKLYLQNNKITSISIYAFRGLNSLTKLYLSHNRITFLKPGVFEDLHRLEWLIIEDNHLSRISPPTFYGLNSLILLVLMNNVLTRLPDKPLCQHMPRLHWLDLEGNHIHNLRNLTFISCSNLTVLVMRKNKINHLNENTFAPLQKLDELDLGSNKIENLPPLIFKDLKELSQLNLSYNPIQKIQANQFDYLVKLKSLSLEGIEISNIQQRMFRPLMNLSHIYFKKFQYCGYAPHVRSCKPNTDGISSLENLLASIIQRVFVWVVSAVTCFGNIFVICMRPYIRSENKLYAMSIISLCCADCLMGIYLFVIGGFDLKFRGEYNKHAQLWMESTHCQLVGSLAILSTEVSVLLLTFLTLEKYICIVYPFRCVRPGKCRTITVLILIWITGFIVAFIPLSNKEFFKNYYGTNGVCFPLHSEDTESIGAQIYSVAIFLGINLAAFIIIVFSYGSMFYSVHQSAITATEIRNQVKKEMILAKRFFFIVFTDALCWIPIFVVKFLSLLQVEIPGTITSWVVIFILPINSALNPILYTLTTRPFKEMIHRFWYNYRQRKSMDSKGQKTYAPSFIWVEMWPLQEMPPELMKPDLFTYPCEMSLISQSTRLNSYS


Columns and labels:
human RXFP2 receptor = human RXFP2 receptor (human, UniProt Q8WXD0 1-754); assay: cell-based or functional assay
human RXFP1 receptor = target: T1, human RXFP1 receptor; assay: cell-based or functional assay
rabbit serum albumin = target: T2, rabbit serum albumin (rabbit, UniProt P49065 25-608); assay: SPR (Biacore 8K), albumin immobilized on CM5 chip, 25 C
T2 construct: Bought protein, immobilized on a CM5 chip by amine coupling; also called Rabbit SA
Protocol: (§1) The immobilization of the serum albumin to a Series S Sensor Chip CM5 surface is performed according to the manufacturer's instructions (Amine Coupling Kit BR-1000-50). Briefly, carboxyl groups on the sensor chip surfaces (flow cell 1 and 2) are activated by injecting 70 μL of a mixture containing 75 mg/mL EDC and 11.5 mg/mL NHS at 10 μL/min. Human, cynomolgus monkey, mouse, rat, pig, dog, cow and rabbit serum albumin are diluted in 10 mM sodium acetate pH 4.0 (BR-1003-49) at […] and then injected over the activated chip surfaces (flow cell 2, channel 1 to 8) at 10 μL/min for 180 sec (human, mouse, rat, pig and cow serum albumin are obtained from Sigma Aldrich (St. Louis, MO); cynomolgus monkey serum albumin is obtained from Hölzel Diagnostika (Cologne, Germany); dog serum albumin is obtained from Molecular Innovations (Novi, MI); and rabbit serum albumin is obtained from Fitzgerald Industries Intl. (Acton, MA). The various serum albumins are covalently immobilized through free amines onto a carboxymethyl dextran-coated sensor chip CM5 targeting a surface density of about 100 (62-145) RU. Excess reactive groups on the surfaces (flow cell 1 and 2) are deactivated by injecting 70 μL of 1 M ETA HCl—NaOH pH 8.5.
(§2) 150 μl of sample is individually injecting sequentially across the immobilized serum albumins on the chip's surface and dissociating for 600 sec at 50 μL/min flow rate at 25° C. The surface is regenerated by injecting 10 mM glycine-HCl pH 1.5 (BR-1003-54) at 50 μL/min for 100 sec. The resulting sensorgrams are analyzed using Biacore 8K Insight Evaluation Software (version 2.0.15.12933) 1:1 binding kinetics model fitting to calculate the binding kinetic parameter association rate (ka), dissociation rate (kd), and equilibrium dissociation constant (KD).

mouse serum albumin = target: T3, mouse serum albumin (mouse, UniProt P07724 25-608); assay: SPR (Biacore 8K), albumin immobilized on CM5 chip, 25 C, 1:1 kinetic fit
T3 construct: Bought protein, immobilized on a CM5 chip by amine coupling; also called Mouse SA
Protocol: as §1, §2

pig serum albumin = target: T4, pig serum albumin (pig, UniProt P08835 25-607); assay: as above
T4 construct: Bought protein, immobilized on a CM5 chip by amine coupling; also called Pig SA
Protocol: as §1, §2

rat serum albumin = target: T5, rat serum albumin (rat, UniProt P02770 25-608); assay: as above
T5 construct: Bought protein, immobilized on a CM5 chip by amine coupling; also called Rat SA
Protocol: as §1, §2

human serum albumin = target: T6, human serum albumin (human, UniProt P02768 25-609); assay: as above
T6 construct: Bought protein, immobilized on a CM5 chip by amine coupling; also called Human SA
Protocol: as §1, §2

[1] = target: T7, cynomolgus monkey serum albumin (cynomolgus monkey, UniProt A2V9Z4 25-608); assay: as above
T7 construct: Bought protein, immobilized on a CM5 chip by amine coupling; also called Cyno SA
Protocol: as §1, §2

cow serum albumin [2] = target: T8, cow serum albumin (cow, UniProt P02769 25-607); assay: as above
T8 construct: Bought protein, immobilized on a CM5 chip by amine coupling; also called Cow SA
Protocol: as §1, §2

dog serum albumin = target: T9, dog serum albumin (dog, UniProt P49822 25-608); assay: as above
T9 construct: Bought protein, immobilized on a CM5 chip by amine coupling; also called Dog SA
Protocol: as §1, §2

cow serum albumin [3] = target: T8, cow serum albumin; assay: SPR (Biacore 8K), albumin immobilized on CM5 chip, 25 C, steady state
Protocol: as §1
150 μl of sample is individually injecting sequentially across the immobilized serum albumins on the chip's surface and dissociating for 600 sec at 50 μL/min flow rate at 25° C. The surface is regenerated by injecting 10 mM glycine-HCl pH 1.5 (BR-1003-54) at 50 μL/min for 100 sec. The resulting sensorgrams are analyzed using Biacore 8K Insight Evaluation Software ([…]).

hRXFP2 EC50 nM GeoMean (cAMP CRE luciferase reporter assay, CHO cells expressing human RXFP2) (human RXFP2 receptor) | hRXFP1 EC50 nM GeoMean (cAMP CRE luciferase reporter assay, CHO cells expressing human RXFP1) (human RXFP1 receptor) | Kd (mouse serum albumin) | koff (mouse serum albumin) | kon (mouse serum albumin) | Kd (pig serum albumin) | koff (pig serum albumin) | kon (pig serum albumin) | Kd (rat serum albumin) | koff (rat serum albumin) | kon (rat serum albumin) | Kd (human serum albumin) | koff (human serum albumin) | kon (human serum albumin) | Kd [1] | koff [1] | kon [1] | Kd (dog serum albumin) | koff (dog serum albumin) | Binder | binding result (rabbit serum albumin) | further results
1.7 nM | 0.15 nM | – | – | – | – | – | – | – | – | – | – | – | – | – | – | – | – | – | native, human RLN2 (ligand, disulfide (positions not given here); not fully specified (bridges); ends not checked; also: two interchain and one intra-A-chain disulfide, pairing not given here) chain 1: QLYSALANKCCHVGCTKRSLARFC chain 2: DSWMEEVIKLCGRELVRAQIAICGMSTWS | – | –
– | – | 3.8 nM | 0.0042 s⁻¹ | 1.1e+06 M⁻¹ s⁻¹ | 8 nM | 0.0056 s⁻¹ | 690000 M⁻¹ s⁻¹ | 3 nM | 0.0029 s⁻¹ | 980000 M⁻¹ s⁻¹ | 0.1 nM | 9.5e-05 s⁻¹ | 920000 M⁻¹ s⁻¹ | 0.45 nM | 0.00052 s⁻¹ | 1.2e+06 M⁻¹ s⁻¹ | 1.4 nM | 0.0015 s⁻¹ | RLN Analog 2 (other, Single-chain fusion: VHH - (PGPA)8 L1 - RLN2 A chain - L2 - RLN2 B chain (desB1)) EVQLLESGGGLVQPGGSLRLSCAASGRYIDETAVAWFRQAPGKEREFVAGIGGGVDITYYADSVKGRFTISRDNSKNTLYLQMNSLRPEDTAVYYCAARPGRPLITSKVADLYPYWGQGTLVTVSSPGPAPGPAPGPAPGPAPGPAPGPAPGPAPGPAQLYSALANKCCHVGCTKRSLARFCGGGSGGSGGGSWMEEVIKLCGRELVRAQIAICGMSTWS | no binding (tested: 1000 nM (highest concentration tested)) | Kd (cow serum albumin [2]): 50 nM; koff (cow serum albumin [2]): 0.049 s⁻¹; kon (cow serum albumin [2]): 980000 M⁻¹ s⁻¹; kon (dog serum albumin): 1e+06 M⁻¹ s⁻¹
98 nM | 8.1 nM | 14 nM | 0.0083 s⁻¹ | 590000 M⁻¹ s⁻¹ | 23 nM | 0.013 s⁻¹ | 580000 M⁻¹ s⁻¹ | 10 nM | 0.0072 s⁻¹ | 700000 M⁻¹ s⁻¹ | 0.45 nM | 0.00026 s⁻¹ | 580000 M⁻¹ s⁻¹ | 1.8 nM | 0.0015 s⁻¹ | 820000 M⁻¹ s⁻¹ | 4.7 nM | 0.0034 s⁻¹ | RLN Analog 5 (other, Single-chain fusion: RLN2 B chain (desB1) - L2 - RLN2 A chain - (G4Q)5 L1 - VHH (C-terminal)) SWMEEVIKLCGRELVRAQIAICGMSTWSGGGSGGSGGGQLYSALANKCCHVGCTKRSLARFCGGGGQGGGGQGGGGQGGGGQGGGGQEVQLLESGGGLVQPGGSLRLSCAASGRYIDETAVAWFRQAPGKEREFVAGIGGGVDITYYADSVKGRFTISRDNSKNTLYLQMNSLRPEDTAVYYCAARPGRPLITSKVADLYPYWGQGTLVTVSSPP | no binding (tested: 1000 nM (highest concentration tested)) | Kd (cow serum albumin [3]): 120 nM; kon (dog serum albumin): 710000 M⁻¹ s⁻¹
97 nM | 5.2 nM | 9.5 nM | 0.011 s⁻¹ | 1.2e+06 M⁻¹ s⁻¹ | 14 nM | 0.012 s⁻¹ | 870000 M⁻¹ s⁻¹ | 8.2 nM | 0.0075 s⁻¹ | 910000 M⁻¹ s⁻¹ | 0.19 nM | 0.00018 s⁻¹ | 950000 M⁻¹ s⁻¹ | 0.86 nM | 0.00094 s⁻¹ | 1.1e+06 M⁻¹ s⁻¹ | 3.8 nM | 0.0036 s⁻¹ | RLN Analog 9 (other, Single-chain fusion: RLN2 B chain (desB1) - L2 - RLN2 A chain - (G4Q)5 L1 - VHH (C-terminal)) SWMEEVIKLCGRELVRAQIAICGMSTWSGGGSGGSGGGQLYSALANKCCHVGCTKRSLARFCGGGGQGGGGQGGGGQGGGGQGGGGQEVQLLESGGGLVQPGGSLRLSCAASGRYIDETAVAWFRQAPGKGREFVAGIGGGVDITYYADSVKGRFTISRDNSKNTLYLQMNSLRPEDTAVYYCAARPGRPLITSKVADLYPYWGQGTLVTVSSPP | no binding (tested: 1000 nM (highest concentration tested)) | Kd (cow serum albumin [3]): 84 nM; kon (dog serum albumin): 950000 M⁻¹ s⁻¹
